Results: the DeepSol protein solubility set

Assay: soluble on expression in E. coli; label from the status in PepcDB or PDB records

Q: With “MGSDKIHHHHHHMRILISPPMRFGKEFLGGMRRTLEVYSRMGEEVYLCVDERTLPQVDPEISPLLSKFHLVSSSSTDKKTYLKGFLNCLKYARKVDVLISYSEYSLSVYYTWLLSLFSRKPFIVVVHHVTEEIRGSKFLRTVIARSKGIICLDNPEVYEELKSLFPNKVILTSTNGVSVEDYYTSEEKICDGIFVGNYGERKGSRYLFQIWDKVNEKIDAKLCIIGKGWSEIPKNSVYYGFVTEREKIDLLAKSKVFVFPSLYEGFALAVTEALSAYLPVVTWDLKWSERYPVAIRVTYPDISSFAEEVVKLLKDEKLRKSIGEKSRELAKTLNWEKAAEMEKKAIYKIMESK” as the sequence, how does the “soluble on expression in E. coli” value read?
A: not soluble

Q: Which “soluble on expression in E. coli” value does the source give for “MTFKPVEICVYGADVICPACVQLPSSKETYEWLEAALRRKYPDQPFVMTYVDIFAPPADDEEKRELAQTIVEEDWVYPVVVIEGNVVAEGNPRLKAICAEMEKFGYRPSAHEGKKAE” here?
A: not soluble

Q: With “MGSDKIHHHHHHMTARTSALAIEIDRQDRSPIYLQICERFRTAIAAGHLRPGDRVPALRGLALQLNTARGTVEMAYTILVDEGYLQMRGAAGTFVSASLPASVTRPARGGDREQPPAREQGATKSSHALRGRQPATRQLAIAVAMSGEPKLLQPGLPALDAFPRKLWNRLVSRCARSGERAMLAYPDPVGYRALREHIATYLGLSRGVACVPEQVFITAGYRATLELVLRSLASPNDRMWFEDPGYLLARGFLAEVGVNLVPVPIDSEGIDVDRGIALDPLARFALVTPSHQAPLGYTLSLARRMALLDWAAKGSSWIIEDDYDSEFRYVGRPLPALKSLDKDDRVIYCGTFSKVMFPGLRLAYAVVPERAVERVERVACSMNAGSPTLLQAAVADFIEQGHFARHVKRMRALYGQRRTLIAHALEQAFGERMLVELPHGGIQFAVQFAEGPDGPVDDVAVAARARDAGLAVVPLSIWYANGRTRRTPRGLVMGFANVTDAREALRLARTLYGCLTG” as the sequence, how does the “soluble on expression in E. coli” value read?
A: not soluble

Q: Which “soluble on expression in E. coli” value does the source give for “MGSDKIHHHHHHMASLDVFHQDAFTTIQLTTAVDKYPFQPTGLGDLNIFEPDPIRTTALAVEQRQGKLVVVPFSERGQEGTQRTTEQREARYFKVPRIMHADTLYANEIQDIRAFGTESELMQVQAEVARRLNGPTGLTSNIEYTWEYHRLAAVQGMLLDADGTVKYNWFDEFGITPPSLVPFNLSAQTPNSLRPIVNGIRRTMARKAQGAFLPTTKIFALCGDLFYDELTNHTDVIRTYLNWSAASELRDDSQGAAFEAFPFAGVTWSNYRGSDDNTTLKIPDDEVHFFPVGAPGVFRVAYAPGESFEWVNTPGKPIYVIPIYDRDRNSFWKMEAYSYPLHICTRPEVLQKGHAGA” here?
A: not soluble

Q: Which “soluble on expression in E. coli” value does the source give for “GPGSMQEIIDTVNRYTLRSAAFRDKPTPGLAARQFLCSLLLHRKLDSIRLSSIARYMFSTEALIAVSRDGIQTISCEGNTLWPICTIPNGLTSEISGVAVTPEGTLVCSSNGICYLEGENLRVAEDCASSSYAQNVLCISCTPDGRYIATGGGTATVTVWTSDLKPLHHFAGHTDWVRFVKFARGRSPALQLFSTGDDGVICQWDVLAGSLISRVDYSLGESIQLFEVSYYSGLMAISSGTSLIALYCPQSDNTTRAVGEDVLRLQPMALITGAHEYTPTAGKFTDDSQWLASASEDETIALTYVLDPQTCFVCKKFVTRRRCFSFMNIFNSICILAAPPVSSVIVIAACSSDGTVVQWVVDPRTNRASYTKKLQLHLGSFLGMDLIPGDDLNHLL” here?
A: not soluble

Q: With “MIDIHNHILVDIDDGPKTIEKSIALLKQAKDEGVTSIVATPHHLHPRYDNTFQQVLVKLAELRTHPEVQALDIKLFPGQEIRITDSILKGLDNGSIQGINRSKYLLIEFPTGEVPHYTKQLFFEIQSRGYIPIIAHPERNRSIAKNPEILYELVANGALSQLTSSSLVGGFGKNIQKLSLQFIECNLAHFVASDAHSCDQRPFLMQELFHNHKLKKYSNDIEALLRNASSVINDNFVYLDRPTKPGKVKSFLKWF” as the sequence, how does the “soluble on expression in E. coli” value read?
A: not soluble

Q: With “SSDANLDSSKKNFLEGEVDDEESVILTLVPVKDDANMEQMEPSVSSTSDVKLEKPKKYNPGHLLQTNEQFTAPQKARCKIPALPLPTILPPINKVCRDTLRDWCQQLGLSTNGKKIEVYLRLHRHAYPEQRQDMPEMSQETRLQRCSRKRKAVTKRARLQSSYEMNERAEETNTVEVITSAPGAMLASWARIAARAVQPKALNSCSIPVSVEAFLMQASGVGWCVVHGRLLSADTKGWVRLQFHAGQAWVPTTHRRMISLFLLPACIFPSPGIEDNMLCPDCAKRNKKMMKRLMTVEK” as the sequence, how does the “soluble on expression in E. coli” value read?
A: soluble

Q: For “MGSISRYLLKKAADGLKDEQRLKIEMSDSKSVPECFHFNRERRMPIAEINGEDGFFMFPSQQSLENFENTKKYSNELSPDAIGIPLFQIINCTLPFGKRGHSNTVVGNVPYYKIFKFILRTADEPPPYTVAKIVCSNNGLILYKVPLYDIYKNVSQANVTYSFVGTTSTEPNLLAMAHREGHRDLDTKVNNLNLRWHVTYSPVVTNDHYKLILLADYEVNRLDEDVIRAAKNKMSIDQKDQKVQRFVAAHYTREFETSLFRWVAQEGHLILGEYSTDQGSFGLNNIPPLTEELGCQSLLIHYIEYMKRQRKKIAKEARRQNKRNVANTTNMNMNLM”, which “soluble on expression in E. coli” value is on record?
A: soluble

Q: For “MGSDKIHHHHHHMEKQNNHIDRRGFLKIVGISAATTTAALYGCGSGTKSSQGRNASSPVPTDQMTYRSVGGIKDKVSLLGYGCMRWPTVPSPEGKGDLINQEAVNELVDYAIAHGVNYFDTSPVYVQGWSEKATGIALKRHPREKLYIATKLSNFSNFSRENSLAMYHQSFKDMQVEYFDYYLLHAIGGGGMKVFNERYIDNGMLDFLLKEREAGRIRHLGWSFHGDVEVFDQVLAMHDTVKWDFVQIQLNYVDWRHATGNNVNAEYLYGELAKRNIAAVIMEPLLGGRLSNVPEHIVGRLKQRRPEDSVASWAFRFAGSPELVLTVLSGMTYMEHLQDNIRTYSPLVPLTDDDKEYLEETAQLMMQYPTIPCNDCKYCMPCPYGIDIPAILVHYNKCVNEGNIPQSQTSENYKEARRAFLVGYDRSVPKLRQASHCIGCNQCTPHCPQSIHIPEELHRIDRFVEQLKQGTL”, which “soluble on expression in E. coli” value is on record?
A: not soluble

Q: With “MGLLTNDIIEESAWEALEKSILYYKGRPVGTVAAFDASVEALNYDQCFVRDFVSSALIFLIKGKTDIVRNFLEETLKLQPKDRQLDAYKPGRGLIPASFKVVSDNGEEYLEADFGEHAIARVTPVDSCLWWILLLRAYVVASKDFSLAYQPEFQTGIRLIMEICLANRFDMYPTLLVPDGACMIDRRLGIYGHPLELQVLFYAALRAAREMLICQGNQDVVEAIDNRLPLLCAHIRQHYWIDINRLNAIYRFKSEEYGKAAVNLFNIYVDSIPYYELDKWLPKKGGYLAGNVGPSQLDTRFFALGNLMAIISDLATEEQSQAIMTLIEDRWEDLVGDMPMKICYPALENEEYRIVTGCDPKNIPWSYHNAGSWPVLMWMLAAASVKAGKPYIAGKAIEIAQARLLEDEWPEYYDGKKGRLIGKQARKYQTWTIAGFLLAAELMKNPSLLSLISFDKLPSELVSRACEFEIGSVDASISRLEHHHHHH” as the sequence, how does the “soluble on expression in E. coli” value read?
A: soluble

Q: For “MALPPGLMVVEEIISSEEEKMLLESVDWTEDTDNQNSQKSLKHRRVKHFGYEFHYENNNVDKDKPLSGGLPDICESFLEKWLRKGYIKHKPDQMTINQYEPGQGIPAHIDTHSAFEDEIVSLSLGSEIVMDFKHPDGIAVPVMLPRRSLLVMTGESRYLWTHGITCRKFDTVQASESLKSGIITSDVGDLTLSKRGLRTSFTFRKVRQTPCNCSYPLVCDSQRKLEHHHHHH”, which “soluble on expression in E. coli” value is on record?
A: soluble

Q: Which “soluble on expression in E. coli” value does the source give for “ASNSQLNAMAHQIQEMFPQVPYHLVLQDLQLTRSVEITTDNILEGRIQVPF” here?
A: soluble

Q: With “MVDIPAGEWQTDACPGWKEGRVCPPEKYLRQTLQIAPFQLSATAVTFAQWDACVDDGGCQEPDTGWAYQTRPNQPPCQAGSPCNYPYDEGWGRGDRPVIHVSWNDAQRYVDWLSQKTGQRYRLPTSEEWEYAAAAGSHARFAWGTKLGKNRGNCNGCGSRWDGKKTAPVASFAPNRFGLYDMVGNVSEWVSTCVPIRSKPGEDNQTCMAYLYRGGAWSYDAKSVGIDTYHSIDADFRANYIGFRVARLEHHHHHH” as the sequence, how does the “soluble on expression in E. coli” value read?
A: not soluble

Q: For “MGSDKIHHHHHHSCDDDGYSIGDIGWDWATVRATGGGGYYLEGDRWGMIDPVASSIPWYKPVDGERVVAFFNPLADTDKGAQVKIEGIQEVLTKEVEDMTAENEEEFGNDPIVIYQGDMWLGGKFLNIIFHQYLPRSEKHRISLVQNKIEPEAPETPEALNVDEDGYIHLELRYNTYDDVTGYRGWGRVSYNLEEFYPTAKDAAETEFKGFKVTINSKENGEGRVIVLDLDHPVGVPEKAKDVHSTSFVK”, which “soluble on expression in E. coli” value is on record?
A: not soluble

Q: With “SRLFSKALKGDHRCGETETPKSCSEVAGCKAAMRHQGKIPEELSLDDRARTQKKWGRGKWEPEPSSKPPREATLEERHARGEKHLGVEIEKTSGEIIRCEKCKRERELQQSLERERLSLGTSELDMGKGPMYDVEKLVRTRSCRRSPEANPASGEEGWKGDSHRSSPRNPTQELRRPSKSMDKKEDRGPEDQESHAQGAAKAKKDLVEVLPVTEEGLREVKKDTRPMSRSKHGGWLLREHQAGFEKLRRTRGEEKEAEKEKKPCMSGGRRMTLRDDQPAKLEKEPKTRPEENKPERPSGRKPRPMGIIAANVEKHYETGRVIGDGNFAVVKECRHRETRQAYAMKIIDKSRLKGKEDMVDSEILIIQSLSHPNIVKLHEVYETDMEIYLILEYVQGGDLFDAIIESVKFPEPDAALMIMDLCKALVHMHDKSIVHRDLKPENLLVQRNEDKSTTLKLADFGLAKHVVRPIFTVCGTPTYVAPEILSEKGYGLEVDMWAAGVILYILLCGFPPFRSPERDQDELFNIIQLGHFEFLPPYWDNISDAAKDLVSRLLVVDPKKRYTAHQVLQHPWIETAGKTNTVKRQKQVSPSSEGHFRSQHKRVVEQVS” as the sequence, how does the “soluble on expression in E. coli” value read?
A: soluble

Q: For “MFVYYIYTIIKSQSKSTPHHYHPCWSNSAAGLKKWGGFMNIKNNRRRRASRDAIENIFIELLQTKSLNEITVSDICKKAGLNRSTFYANYMDIYQLADTIRETLEDNLNDLYRSEIAGGYNSNDYLPLFRHIKENQPFYNTYFKLGYDNQYKIFKYDTALARDHFGNRFIDYHCEFFKSGITAIIKHWLSNGCLETPEEINGILMSEYRGRKMEET”, which “soluble on expression in E. coli” value is on record?
A: not soluble

Q: For “VLTELVDLPGGSFRMGSTRFYPEEAPIHTVTVRAFAVERHPVTNAQFAEFVSATGYVTVAEQPLDPGLYPGVDAADLCPGAMVFCPTAGPVDLRDWRQWWDWVPGACWRHPFGRDSDIADRAGHPVVQVAYPDAVAYARWAGRRLPTEAEWEYAARGGTTATYAWGDQEKPGGMLMANTWQGRFPYRNDGALGWVGTSPVGRFPANGFGLLDMIGNVWEWTTTEFYPHHRIDPPSTACCAPVKLATAADPTISQTLKGGSHLCAPEYCHRYRPAARSPQSQDTATTHIGFRCVADPVSG”, which “soluble on expression in E. coli” value is on record?
A: soluble

Q: Which “soluble on expression in E. coli” value does the source give for “MAQMTMVQAINDALKTELKNDQDVLIFGEDVGVNGGVFRVTEGLQKEFGEDRVFDTPLAESGIGGLAMGLAVEGFRPVMEVQFLGFVFEVFDAIAGQIARTRFRSGGTKTAPVTIRGPFGGGVHTPELHADNLEGILAQSPGLKVVIPSGPYDAKGLLISSIRSNDPVVYLEHMKLYRSFREEVPEEEYTIDIGKANVKKEGNDISIITYGAMVQESMKAAEELEKDGYSVEVIDLRTVQPIDVDTIVASVEKTGRAVVVQEAQRQAGVGAAVVAELSERAILSLEAPIGRVAAADTIYPFTQAENVWLPNKNDIIEKAKETLEF” here?
A: not soluble

Q: Which “soluble on expression in E. coli” value does the source give for “MLSCRDLVIRQGGKVLWQNLTFTISAGERVGIHAPSGTGKTTLGRVLAGWQKPTAGDVLLDGSPLPLHQYCPVQLVPQHPELTFNPWRSAGDAVRDAWQPDPETMRRLHVQPEWLTRRPMQLSGGELARIAILRALDPRTRFLIADEMTAQLDPSIQKAIWVYVLEVCRSRSLGMLVISHQSALLDQVCTRHLQVE” here?
A: not soluble
